Measured values from PMC2063550.

Legend:
[1] = target: GST-PERK, wild-type PERK kinase domain fused to GST (active, autophosphorylated) (mouse) (UniProt Q9Z2B5); assay: pull-down
[2] = target: GST-PERK, wild-type PERK kinase domain fused to GST (active, autophosphorylated) (mouse) (UniProt Q9Z2B5)

Sequence of UniProt Q9Z2B5 (Q9Z2B5 537-1114): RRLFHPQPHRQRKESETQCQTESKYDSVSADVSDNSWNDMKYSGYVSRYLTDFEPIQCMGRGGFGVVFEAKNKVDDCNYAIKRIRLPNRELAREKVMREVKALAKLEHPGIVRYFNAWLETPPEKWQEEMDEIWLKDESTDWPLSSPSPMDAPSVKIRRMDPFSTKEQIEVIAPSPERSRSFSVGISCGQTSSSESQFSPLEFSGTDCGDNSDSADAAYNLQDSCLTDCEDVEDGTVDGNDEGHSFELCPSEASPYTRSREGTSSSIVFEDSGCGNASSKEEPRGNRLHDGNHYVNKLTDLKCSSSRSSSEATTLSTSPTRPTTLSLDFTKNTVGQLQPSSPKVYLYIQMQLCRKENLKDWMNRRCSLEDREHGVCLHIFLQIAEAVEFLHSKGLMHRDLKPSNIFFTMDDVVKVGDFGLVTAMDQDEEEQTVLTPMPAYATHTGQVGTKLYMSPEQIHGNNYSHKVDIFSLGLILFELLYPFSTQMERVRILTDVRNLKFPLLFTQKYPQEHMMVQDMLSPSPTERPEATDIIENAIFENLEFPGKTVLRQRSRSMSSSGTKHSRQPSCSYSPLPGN

| KCl concentration at the peak of elution [1] | stoichiometry N (eIF2α-NTD per PERK) [2] | Substance |
| --- | --- | --- |
| 125 mM KCl |  | phosphorylated eIF2α-NTD (P–eIF2α-NTD, phosphorylated by PERK on serine 51) (domain or fragment) |
| 225 mM KCl | > 1 | eIF2α-NTD (NH2-terminal domain of eIF2α, residues 1-185, three solubilizing mutations, nonphosphorylated) (domain or fragment) |
